Results published in US20150224182A1 (UNIVERSITY OF VIRGINIA PATENT FOUNDATION, published 2015).
Non-standard residues stand in square brackets, D forms with d. No end group written: not given here. pT = C[C@@H](OP(=O)(O)O)[C@H](N)C(=O)O; pS = N[C@@H](COP(=O)(O)O)C(=O)O

molecular target: T1, HLA B*0702 (human); assay: MS of peptides eluted from HLA; L/M column: L
T1 construct: Class I MHC molecule of the cells from which the associated phosphopeptides were detected; also called HLA-B7

Does FRR[pS]PTKSSL [FRRsPTKSSL] bind?
Result: binds

Does KPP[pS]PEHQSL [KPPsPEHQSL] bind?
Result: binds

Does KPPYRSH[pS]L [KPPYRSHsL] bind?
Result: binds

Does RPKPSS[pS]PV [RPKPSSsPV] bind?
Result: binds

Does RPY[pS]PPFFSL [RPYsPPFFSL] bind?
Result: binds

Does KPQTRGK[pT]F [KPQTRGKtF] bind?
Result: binds

Does RSG[pS]LERKV [RSGsLERKV] bind?
Result: binds

Does QPR[pS]PGPDYSL [QPRsPGPDYSL] bind?
Result: binds

Does RPP[pS]PGPVL [RPPsPGPVL] bind?
Result: binds

Does RPAK[pS]MDSL [RPAKsMDSL] bind?
Result: binds

Does RSL[pS]PGGAA [RSLsPGGAA] bind?
Result: binds

Does RRS[pS]LDAEIDSL [RRSsLDAEIDSL] bind?
Result: binds

Does RPV[pS]PGKDI [RPVsPGKDI] bind?
Result: binds

Does RPW[pS]PAVSA [RPWsPAVSA] bind?
Result: binds

Does RPA[pT]GGPGVA [RPAtGGPGVA] bind?
Result: binds

Does RSE[pS]KDRKL [RSEsKDRKL] bind?
Result: binds

Does EPKRR[pS]ARL [EPKRRsARL] bind?
Result: binds

Does FSI[pS]PVRL [FSIsPVRL] bind?
Result: binds

Does RPQRAT[pS]NVF [RPQRATsNVF] bind?
Result: binds

Does RPR[pS]PTGP [RPRsPTGP] bind?
Result: binds

Does RP[pS]SPALYF [RPsSPALYF] bind?
Result: binds

Does RPA[pS]AGAML [RPAsAGAML] bind?
Result: binds

Does RPH[pS]PEKAF [RPHsPEKAF] bind?
Result: binds

Does RPF[pS]PREAL [RPFsPREAL] bind?
Result: binds

Does RPRPH[pS]APSL [RPRPHsAPSL] bind?
Result: binds

Does RPR[pS]PAARL [RPRsPAARL] bind?
Result: binds

Does RPRAN[pS]GGVDL [RPRANsGGVDL] bind?
Result: binds

Does FRR[pS]PTKSSLDY [FRRsPTKSSLDY] bind?
Result: binds

Does LPA[pS]PRARL [LPAsPRARL] bind?
Result: binds

Does RPR[pS]PGSNSKV [RPRsPGSNSKV] bind?
Result: binds

Does RPKLS[pS]PAL [RPKLSsPAL] bind?
Result: binds

Does RPR[pS]PTGP[pS]NSF [RPRsPTGPsNSF] bind?
Result: binds

Does KPR[pS]PDHVL [KPRsPDHVL] bind?
Result: binds

Does RAP[pS]PSSRM [RAPsPSSRM] bind?
Result: binds

Does KPY[pS]PLASL [KPYsPLASL] bind?
Result: binds

Does RPR[pS]PSPIS [RPRsPSPIS] bind?
Result: binds

Does RPR[pS]AVLL [RPRsAVLL] bind?
Result: binds

Does KPA[pS]PARRL [KPAsPARRL] bind?
Result: binds

Does RPSRS[pS]PGL [RPSRSsPGL] bind?
Result: binds

Does RPV[pT]PVSDL [RPVtPVSDL] bind?
Result: binds

Does KPP[pT]PGASF [KPPtPGASF] bind?
Result: binds

Does RPQRA[pT]SNVF [RPQRAtSNVF] bind?
Result: binds

Does RPI[pT]PPRNSA [RPItPPRNSA] bind?
Result: binds

Does RRK[pS]QVAEL [RRKsQVAEL] bind?
Result: binds

Does RPR[pS]PRQNSI [RPRsPRQNSI] bind?
Result: binds

Does RPN[pS]PSPTAL [RPNsPSPTAL] bind?
Result: binds

Does RPPPPPD[pT]PP [RPPPPPDtPP] bind?
Result: binds

Does RPR[pS]LEVTI [RPRsLEVTI] bind?
Result: binds

Does KPA[pS]PKFIVTL [KPAsPKFIVTL] bind?
Result: binds

Does RPD[pS]RLGKTEL [RPDsRLGKTEL] bind?
Result: binds

Does KPPH[pS]PLVL [KPPHsPLVL] bind?
Result: binds

Does RPP[pS]SEFLDL [RPPsSEFLDL] bind?
Result: binds
